In PMC7046470:

How the values were obtained:
[1] = biological target: maize Atg8a, split-ubiquitin two-hybrid fusion; assay: split-ubiquitin Y2H; conditions: colonies on -LWHA medium versus -LW medium, bait pBT3N-ATG8a, parent: est. 52, read off a plot
[2] = biological target: HA-Rtn2 (maize)
[3] = biological target: HA-Rtn2(mAIM1) (maize)
[4] = biological target: HA-Rtn2(mAIM1,2,5,6) (maize)
[5] = biological target: HA-Rtn2 (maize); assay: co-IP; anti-HA affinity gel on lysates of Arabidopsis protoplasts (wild type; also atg5-1) transiently expressing the proteins, incubated with or without 2 mM DTT or 5 μg/mL tunicamycin for 3 hr; 150 mM Tris-HCl pH 7.5, 150 mM NaCl, 1.5% Triton X-100, 2 hr at 4°C
[6] = biological target: GFP-Atg8a; assay: co-immunoprecipitation, densitometry of immunoblots; conditions: Arabidopsis protoplasts; immunoprecipitation with anti-HA antibodies; three biological replicates; parent: est. 1.0; read off a plot

Work on “maize Rtn2, split-ubiquitin two-hybrid fusion mAIM1,5,6” yielded a response ([1]; prey pPR3C-Rtn2(mAIM1,5,6)) of 12%.

For “maize Rtn2, split-ubiquitin two-hybrid fusion mAIM1,5”, the response ([1]; prey pPR3C-Rtn2(mAIM1,5)) was 16%.

Work on GFP-Atg8a (natural protein) yielded a percent of Arabidopsis protoplasts (DTT and ConA) with autophagic bodies labeled with both GFP-Atg8a and Rtn2-mCherry (Rtn2 as mCherry fusion) [2] of 54%, a percent of Arabidopsis protoplasts (DTT and ConA) with autophagic bodies labeled with both GFP-Atg8a and Rtn2(mAIM1)-mCherry (mCherry fusion) [3] of 42% and a percent of Arabidopsis protoplasts (DTT and ConA) with autophagic bodies labeled with both GFP-Atg8a and Rtn2(mAIM1,2,5,6)-mCherry (mCherry fusion) [4] of 23%. The fold increase in binding upon DTT treatment against no DTT [5] was 3 fold.

HA-Rtn2 mAIM1,2,5,6 was tested, and the ratio to parent [6] was 0.02.

In the case of HA-Rtn2 mAIM1, the ratio to parent [6] is reported as 0.87.

HA-Rtn2 mAIM1,5 showed a ratio to parent [6] of 0.38.

With “maize Rtn2, split-ubiquitin two-hybrid fusion mAIM1” the response ([1]; prey pPR3C-Rtn2(mAIM1)) was 33%.

For HA-Rtn2 mAIM1,5,6, the ratio to parent [6] was 0.22.

Work on “maize Rtn2, split-ubiquitin two-hybrid fusion mAIM1,2,5,6” yielded a response ([1]; prey pPR3C-Rtn2(mAIM1,2,5,6)) of 7%.
